These results are taken from doi:10.1101/2024.09.27.615443 (bioRxiv, 2024).

The assay concerns the target recombinant TGF-β1/GARP (Homo sapiens, UniProt P01137;Q14392). Briefly: ELISA.

Sequence of recombinant TGF-β1/GARP (P01137 30-390, chain 1 of 2): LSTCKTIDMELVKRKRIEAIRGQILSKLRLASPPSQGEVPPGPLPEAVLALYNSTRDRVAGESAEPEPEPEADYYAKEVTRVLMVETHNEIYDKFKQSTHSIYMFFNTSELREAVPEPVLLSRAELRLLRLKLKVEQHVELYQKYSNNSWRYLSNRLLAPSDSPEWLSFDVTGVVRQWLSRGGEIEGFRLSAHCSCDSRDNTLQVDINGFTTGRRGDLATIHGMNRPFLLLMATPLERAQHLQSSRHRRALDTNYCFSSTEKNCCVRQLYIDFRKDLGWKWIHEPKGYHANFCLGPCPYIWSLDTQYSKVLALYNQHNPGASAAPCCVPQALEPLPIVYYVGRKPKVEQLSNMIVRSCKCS
Sequence of recombinant TGF-β1/GARP (Q14392 20-662, chain 2 of 2): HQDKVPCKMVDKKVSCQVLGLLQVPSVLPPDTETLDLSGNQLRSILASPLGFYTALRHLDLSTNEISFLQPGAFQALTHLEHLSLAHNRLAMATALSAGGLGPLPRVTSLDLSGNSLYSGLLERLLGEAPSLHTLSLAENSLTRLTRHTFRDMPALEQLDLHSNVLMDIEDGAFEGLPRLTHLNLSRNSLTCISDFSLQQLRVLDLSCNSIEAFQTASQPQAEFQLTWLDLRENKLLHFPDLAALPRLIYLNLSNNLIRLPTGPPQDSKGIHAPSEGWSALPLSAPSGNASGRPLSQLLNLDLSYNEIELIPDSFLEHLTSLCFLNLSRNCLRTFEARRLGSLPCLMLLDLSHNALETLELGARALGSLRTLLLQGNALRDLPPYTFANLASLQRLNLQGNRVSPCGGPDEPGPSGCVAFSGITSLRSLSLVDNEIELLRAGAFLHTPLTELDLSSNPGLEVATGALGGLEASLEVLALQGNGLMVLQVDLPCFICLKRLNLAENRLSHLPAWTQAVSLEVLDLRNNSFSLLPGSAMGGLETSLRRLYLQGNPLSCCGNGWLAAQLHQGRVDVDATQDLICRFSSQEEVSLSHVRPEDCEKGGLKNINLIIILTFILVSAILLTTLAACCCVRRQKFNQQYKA

B1: monoclonal antibody clone 28G11 (antibody, V domains shown)
VH: EVKLVESGGGLVQPGGSLSLSCAASGFTFTDYYMSWVRQPPGKALEWLGFIRNKPNGYTTEYSASVKGRFTISRDNSQSILYLQMNVLRAEDSATYYCARYTGGGYFDYWGQGTTLTVSS
VL: DIQMTQTTSSLSASLGDRLTISCRASQDISNYLNWYQQKPDGTVKLLIYYTSRLHSGVPSRFSGSGSGTDYSLTISNLEQADIATYFCQQGDTLPWTFGGGTKLEIK
For the molecule B1, the binding result is “binds”.
